# Experimental data from patent US20140107021A1 (priority 2010, published 2014).
# Where two headings read alike, the source gives them in different places. Numbered stars: 1 amine (or outer) side, 2 acyl side, 3 side chain; on linkers, the order of the positions; unused ones are H or OH. Square brackets hold non-standard residues; d marks the D form. Side chains are listed from the residue outwards. Ends that are not written are not given here. Peptide text beside a SMILES is read from it. * marks the point of attachment. PEG 40 kDa = PEG of 40 kDa covalently attached to Cys; γGlu = O=C(O)[C@H](CCC(=O)[*:2])N[*:1]; C16 acyl = 16 carbon fatty acyl group; Palmitoyl = CCCCCCCCCCCCCCCC(=O)*; Myristoyl = CCCCCCCCCCCCCC(=O)*; Aib = CC(C)(N)C(=O)O
# What was measured:
# GLP-1 receptor = molecular target: T1, GLP-1 receptor (Homo sapiens, UniProt P43220); experiment: cAMP induction at the GLP-1 receptor (agonist activity), firefly luciferase reporter assay in HEK293 cells; format: cell-based; conditions: for GLP-1R relative activity: relative to standard
# T1 construct: expressed in transfected cells; host or cells: HEK293
# From the text: (§1) HEK293 cells co-transfected with the receptor and luciferase gene linked to a cAMP responsive element were employed for the bioassay.
# (§2) All EC50s and IC50s are reported in the following examples in nM, unless indicated otherwise.
# glucagon receptor [1] = molecular target: T2, glucagon receptor (Homo sapiens, UniProt P47871); experiment: cell-based; conditions: Glu ICso (nM), Table A; Glu = glucagon
# From the text: as §1, §2
# glucagon receptor [2] = molecular target: T2, glucagon receptor; experiment: cAMP induction at the glucagon receptor (agonist activity), luciferase reporter assay in HEK293 cells; format: cell-based; design: expressed in transfected cells; host or cells: HEK293; conditions: for EC50 / GR relative activity: Table 4; for EC50: read-out: GR EC50; for GR relative activity: relative to standard
# From the text: as §1, §2
# GIP receptor = molecular target: T3, GIP receptor (Homo sapiens, UniProt P48546); experiment: cAMP induction at the GIP receptor (agonist activity), luciferase reporter assay in HEK293 cells; format: cell-based; conditions: for EC50 / GIPR relative activity: Table 4; for EC50: read-out: GIPR EC50; for GIPR relative activity: relative to standard
# T3 construct: expressed in transfected cells; host or cells: HEK293
# T3 sequence (P48546 22-466): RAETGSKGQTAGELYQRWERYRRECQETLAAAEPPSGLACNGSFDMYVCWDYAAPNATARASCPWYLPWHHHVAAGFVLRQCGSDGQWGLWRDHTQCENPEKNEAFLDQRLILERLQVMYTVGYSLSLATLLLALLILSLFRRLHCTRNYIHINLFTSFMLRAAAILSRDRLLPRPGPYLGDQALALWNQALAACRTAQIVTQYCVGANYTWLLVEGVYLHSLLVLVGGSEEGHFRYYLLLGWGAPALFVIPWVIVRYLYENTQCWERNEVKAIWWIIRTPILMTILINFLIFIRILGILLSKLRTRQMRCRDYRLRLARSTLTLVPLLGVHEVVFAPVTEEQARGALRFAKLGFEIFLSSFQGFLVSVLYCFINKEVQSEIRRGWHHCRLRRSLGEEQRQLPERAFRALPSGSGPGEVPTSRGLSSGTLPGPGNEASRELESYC
# From the text: as §1, §2
# [3] = Table 7, relative to the native ligand of the receptor
# [4] = Table 6, relative to the native ligand at the receptor
# T2 sequence (P47871 26-477): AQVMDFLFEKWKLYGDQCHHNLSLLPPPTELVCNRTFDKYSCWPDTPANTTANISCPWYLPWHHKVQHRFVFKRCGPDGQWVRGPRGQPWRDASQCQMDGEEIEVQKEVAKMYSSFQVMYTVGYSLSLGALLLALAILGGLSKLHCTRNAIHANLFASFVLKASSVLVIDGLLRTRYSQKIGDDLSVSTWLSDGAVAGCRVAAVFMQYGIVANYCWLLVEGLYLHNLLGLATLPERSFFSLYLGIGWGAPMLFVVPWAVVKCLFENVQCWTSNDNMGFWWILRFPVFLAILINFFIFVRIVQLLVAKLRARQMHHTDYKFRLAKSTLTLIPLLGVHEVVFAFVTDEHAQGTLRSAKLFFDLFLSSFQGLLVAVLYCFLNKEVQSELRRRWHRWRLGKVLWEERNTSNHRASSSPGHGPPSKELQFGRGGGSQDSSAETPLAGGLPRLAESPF
# T1 sequence (P43220 24-463): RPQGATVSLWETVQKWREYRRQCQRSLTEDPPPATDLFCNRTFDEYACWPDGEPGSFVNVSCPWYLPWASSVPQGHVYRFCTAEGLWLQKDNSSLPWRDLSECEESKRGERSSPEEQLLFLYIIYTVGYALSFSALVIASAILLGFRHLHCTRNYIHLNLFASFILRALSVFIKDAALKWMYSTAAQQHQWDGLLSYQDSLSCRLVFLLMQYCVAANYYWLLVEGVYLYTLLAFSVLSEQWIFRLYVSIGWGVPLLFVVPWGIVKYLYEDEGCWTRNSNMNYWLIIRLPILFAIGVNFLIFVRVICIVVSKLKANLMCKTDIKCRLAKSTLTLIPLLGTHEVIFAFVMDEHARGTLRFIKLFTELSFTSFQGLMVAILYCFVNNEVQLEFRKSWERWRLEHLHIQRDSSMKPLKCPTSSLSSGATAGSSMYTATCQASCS
Compound,"EC50 (GLP-1 receptor; Table 4, read-out: GLP-1R EC50)",EC50 (glucagon receptor [2]),EC50 (GIP receptor),% Relative Activity GLP-1R (GLP-1 receptor; Table 9),% Relative Activity at GR (glucagon receptor [2]; Table 9),% Relative Activity at GIPR (GIP receptor; Table 9),other results
"CSCC[C@H](NC(=O)[C@H](CC(C)C)NC(=O)[C@H](Cc1c[nH]c2ccccc12)NC(=O)[C@H](CCC(N)=O)NC(=O)[C@@H](NC(=O)[C@H](Cc1ccccc1)NC(=O)[C@H](CC(=O)O)NC(=O)[C@H](CCC(N)=O)NC(=O)[C@H](C)NC(=O)[C@H](CCCNC(=N)N)NC(=O)[C@H](CCCNC(=N)N)NC(=O)[C@@H]1CCC(=O)NCCCC[C@H](NC(=O)[C@H](CO)NC(=O)[C@H](Cc2ccc(O)cc2)NC(=O)[C@H](CCC(=O)O)NC(=O)[C@H](CO)NC(=O)[C@@H](NC(=O)[C@@H](O)Cc2ccccc2)[C@@H](C)O)C(=O)N[C@@H](Cc2ccc(O)cc2)C(=O)N[C@@H](CC(C)C)C(=O)N[C@@H](CC(=O)O)C(=O)N1)C(C)C)C(=O)N[C@@H](CC(N)=O)C(=O)N[C@H](C(=O)NCC(=O)N1CCC[C@H]1C(=O)N[C@@H](CO)C(=O)N[C@@H](CO)C(=O)NCC(=O)N[C@@H](C)C(=O)N1CCC[C@H]1C(=O)N1CCC[C@H]1C(=O)N1CCC[C@H]1C(=O)N[C@@H](CO)C(N)=O)[C@@H](C)O [[PLA6, E9, K12E16(Lactam)] (HELM PEPTIDE1{[O=C([C@@H](O)Cc1ccccc1)[*:2]].T.S.E.Y.S.K.Y.L.D.E.R.R.A.Q.D.F.V.Q.W.L.M.N.T.G.P.S.S.G.A.P.P.P.S.[am]}$PEPTIDE1,PEPTIDE1,7:R3-11:R3$$$V2.0)",,,,,,,"EC50 (GLP-1 receptor; GLP-1 EC50 (nM), Table C): 6 nM; EC50 (GLP-1 receptor; GLP-1 ECso (nM), Table A): 6 nM; IC50 (glucagon receptor [1]): 72 nM"
CC[C@H](C)[C@H](NC(=O)[C@H](CO)NC(=O)[C@H](Cc1ccc(O)cc1)NC(=O)[C@H](CC(=O)O)NC(=O)[C@H](CO)NC(=O)[C@@H](NC(=O)[C@H](Cc1ccccc1)NC(=O)[C@@H](NC(=O)CNC(=O)[C@H](CCC(=O)O)NC(=O)C(C)(C)NC(=O)[C@@H](N)Cc1ccc(O)cc1)[C@@H](C)O)[C@@H](C)O)C(=O)N[C@@H](Cc1ccc(O)cc1)C(=O)N[C@@H](CC(C)C)C(=O)N[C@@H](CC(=O)O)C(=O)N[C@@H](CCCCN)C(=O)N[C@@H](CCC(N)=O)C(=O)N[C@@H](C)C(=O)N[C@@H](C)C(=O)NC(C)(C)C(=O)N[C@@H](CCC(=O)O)C(=O)N[C@@H](Cc1ccccc1)C(=O)N[C@H](C(=O)N[C@@H](CC(N)=O)C(=O)N[C@@H](Cc1c[nH]c2ccccc12)C(=O)N[C@@H](CC(C)C)C(=O)N[C@@H](CC(C)C)C(=O)N[C@@H](C)C(=O)NCC(=O)NCC(=O)N1CCC[C@H]1C(=O)N[C@@H](CO)C(=O)N[C@@H](CO)C(=O)NCC(=O)N[C@@H](C)C(=O)N1CCC[C@H]1C(=O)N1CCC[C@H]1C(=O)N1CCC[C@H]1C(=O)N[C@@H](CO)C(N)=O)C(C)C [mt-395],0.0076 nM,3.41 nM,0.0025 nM,,,,GLP-1R relative activity (GLP-1 receptor; Table 4): 321.55%; GR relative activity (glucagon receptor [2]): 0.87%; GIPR relative activity (GIP receptor): 537.45%
CC[C@H](C)[C@H](NC(=O)[C@H](CO)NC(=O)[C@H](Cc1ccc(O)cc1)NC(=O)[C@H](CC(=O)O)NC(=O)[C@H](CO)NC(=O)[C@@H](NC(=O)[C@H](Cc1ccccc1)NC(=O)[C@@H](NC(=O)CNC(=O)[C@H](CCC(=O)O)NC(=O)C(C)(C)NC(=O)[C@@H](N)Cc1ccc(O)cc1)[C@@H](C)O)[C@@H](C)O)C(=O)N[C@@H](Cc1ccc(O)cc1)C(=O)N[C@@H](CC(C)C)C(=O)N[C@@H](CC(=O)O)C(=O)N[C@@H](CCCCN)C(=O)N[C@@H](CCC(N)=O)C(=O)N[C@@H](C)C(=O)N[C@@H](C)C(=O)NC(C)(C)C(=O)N[C@@H](CCC(=O)O)C(=O)N[C@@H](Cc1ccccc1)C(=O)N[C@H](C(=O)N[C@@H](CC(N)=O)C(=O)N[C@@H](Cc1c[nH]c2ccccc12)C(=O)N[C@@H](CC(C)C)C(=O)N[C@@H](CC(C)C)C(=O)N[C@@H](C)C(=O)NCC(=O)NCC(=O)N1CCC[C@H]1C(=O)N[C@@H](CO)C(=O)N[C@@H](CO)C(=O)NCC(=O)N[C@@H](C)C(=O)N1CCC[C@H]1C(=O)N1CCC[C@H]1C(=O)N1CCC[C@H]1C(=O)N[C@@H](CO)C(=O)N[C@@H](CCC(=O)O)C(N)=O)C(C)C [mt-396],0.0093 nM,2.9 nM,0.0034 nM,,,,GLP-1R relative activity (GLP-1 receptor; Table 4): 262.27%; GR relative activity (glucagon receptor [2]): 1.03%; GIPR relative activity (GIP receptor): 402.69%
CC[C@H](C)[C@H](NC(=O)[C@H](CO)NC(=O)[C@H](Cc1ccc(O)cc1)NC(=O)[C@H](CC(=O)O)NC(=O)[C@H](CO)NC(=O)[C@@H](NC(=O)[C@H](Cc1ccccc1)NC(=O)[C@@H](NC(=O)CNC(=O)[C@H](CCC(=O)O)NC(=O)C(C)(C)NC(=O)[C@@H](N)Cc1ccc(O)cc1)[C@@H](C)O)[C@@H](C)O)C(=O)N[C@@H](Cc1ccc(O)cc1)C(=O)N[C@@H](CC(C)C)C(=O)N[C@@H](CC(=O)O)C(=O)N[C@@H](CCCCN)C(=O)N[C@@H](CCC(N)=O)C(=O)N[C@@H](C)C(=O)N[C@@H](C)C(=O)NC(C)(C)C(=O)N[C@@H](CCC(=O)O)C(=O)N[C@@H](Cc1ccccc1)C(=O)N[C@H](C(=O)N[C@@H](CC(N)=O)C(=O)N[C@@H](Cc1c[nH]c2ccccc12)C(=O)N[C@@H](CC(C)C)C(=O)N[C@@H](CC(C)C)C(=O)N[C@@H](C)C(=O)NCC(=O)NCC(=O)N1CCC[C@H]1C(=O)N[C@@H](CO)C(=O)N[C@@H](CO)C(=O)NCC(=O)N[C@@H](C)C(=O)N1CCC[C@H]1C(=O)N1CCC[C@H]1C(=O)N1CCC[C@H]1C(=O)N[C@@H](CO)C(=O)N[C@H](CCCCN)C(N)=O)C(C)C [mt-398],0.0078 nM,3.74 nM,0.0031 nM,,,,
Chimera2-CEXK40(C16) (H[Aib]QGTFTSDYSKYLDEQAAKEFIAWLMNGGPSSGAPPPSK(Palmitoyl)-NH2) [MT-364],,,,,,,% Relative Activity GLP-1R (GLP-1 receptor; [3]): 355%; % Relative Activity at GR (glucagon receptor [2]; [3]): 350%; % Relative Activity at GIPR (GIP receptor; [3]): 16%
E3C24-PEG-K10-C14 (Y[Aib]EGTFTSDK(Myristoyl)SIYLDKQAA[Aib]EFVC(PEG 40 kDa)WLLAGGPSSGAPPPS-NH2) [MT-341],,,,14.6%,0.01%,27.4%,
E3C24-PEG-K40-C14 (Y[Aib]EGTFTSDYSIYLDKQAA[Aib]EFVC(PEG 40 kDa)WLLAGGPSSGAPPPSK(Myristoyl)-NH2) [MT-353],,,,128.6%,0.17%,102.9%,
"E3K16AIB2,20K10(C16) (Y[Aib]EGTFTSDK(C16 acyl)SIYLDKQAA[Aib]EFVNWLLAGGPSSGAPPPS-NH2) [MT-270]",,,,211.8%,0.06%,163.3%,% Relative Activity GLP-1R (GLP-1 receptor; [4]): 212%; % Relative Activity at GR (glucagon receptor [2]; [4]): 0.1%; % Relative Activity at GIPR (GIP receptor; [4]): 163%
K40-C16 (Y[Aib]QGTFTSDYSIYLDKQAA[Aib]EFVNWLLAGGPSSGAPPPSK(C16 acyl)-NH2) [MT-278],,,,459.5%,588.4%,846.4%,
Q3K16AIB20K10(rErE-C16) (Y[Aib]QGTFTSDK([γGlu-γGlu-C16 acyl])SIYLDKQAA[Aib]EFVNWLLAGGPSSGAPPPS-NH2) [MT-384],,,,,,,% Relative Activity GLP-1R (GLP-1 receptor; [3]): 349%; % Relative Activity at GR (glucagon receptor [2]; [3]): 228%; % Relative Activity at GIPR (GIP receptor; [3]): 808%
